Experimental data reported in patent US20190315842A1 (DUKE UNIVERSITY, published 2019).
Substitutions are numbered along the chain they refer to. Each block holds one binder with its values, some of them ahead of it. Where no end group is shown, it is not given here. The star is where a group is joined. Biotin = O=C1N[C@H]2[C@H](CS[C@H]2CCCCC(=O)*)N1

How the values were obtained:
[1] = target: T1, GPPPPIDNGDITSFP(GGGK-biotin); assay: ELISA: biotinylated peptide captured on immobilized Neutravidin, antibody at 0.5 µg/ml, anti-human IgG-HRP/ABTS, OD 405 nm
T1 construct: also called biotinylated 15-mer peptide; biotinylated 19-mer
T1 peptide: GPPPPIDNGDITSFPGGGK(Biotin)

[2] = target: systemic lupus erythematosus autoantigen SSA; assay: AtheNA Multi-Lyte ANA, Ab at 28.3 ug/ml
[3] = target: T2, Sm (sphingomyelin); assay: AtheNA Multi-Lyte ANA, Ab at 28.3 ug/ml
T2 construct: in an ANA panel of nuclear antigens Sm is usually the Smith ribonucleoprotein antigen; Kept, but see recheck

[4] = target: ribonucleoprotein (RNP); assay: AtheNA Multi-Lyte ANA, Ab at 28.3 ug/ml
[5] = target: systemic lupus erythematosus autoantigen SSA; assay: AtheNA Multi-Lyte ANA, Ab at 3.538 ug/ml
[6] = target: T2, Sm (sphingomyelin); assay: AtheNA Multi-Lyte ANA, Ab at 3.538 ug/ml
[7] = target: ribonucleoprotein (RNP); assay: AtheNA Multi-Lyte ANA, Ab at 3.538 ug/ml
[8] = target: systemic lupus erythematosus autoantigen SSA; assay: AtheNA Multi-Lyte ANA, Ab at 7.075 ug/ml
[9] = target: T2, Sm (sphingomyelin); assay: AtheNA Multi-Lyte ANA, Ab at 7.075 ug/ml
[10] = target: ribonucleoprotein (RNP); assay: AtheNA Multi-Lyte ANA, Ab at 7.075 ug/ml
[11] = target: systemic lupus erythematosus autoantigen SSA; assay: AtheNA Multi-Lyte ANA, Ab at 16.7 ug/ml
[12] = target: T2, Sm (sphingomyelin); assay: AtheNA Multi-Lyte ANA, Ab at 16.7 ug/ml
[13] = target: ribonucleoprotein (RNP); assay: AtheNA Multi-Lyte ANA, Ab at 16.7 ug/ml
[14] = target: T3, 15-mer peptide GPPPPIDNGDITSFP (SEQ ID NO: 114) (human); assay: assay and antigen not given; Example 10, epitope mapping on the 15-mer peptide
T3 construct: Immobilized for SPR; also called parent peptide
T3 peptide: GPPPPIDNGDITSFP

[15] = target: systemic lupus erythematosus autoantigen SSA; assay: AtheNA Multi-Lyte ANA, Ab at 8.35 ug/ml
[16] = target: T2, Sm (sphingomyelin); assay: AtheNA Multi-Lyte ANA, Ab at 8.35 ug/ml
[17] = target: ribonucleoprotein (RNP); assay: AtheNA Multi-Lyte ANA, Ab at 8.35 ug/ml
[18] = target: T4, reduced form of Complement Factor H (CFH), treated with TCEP (human, UniProt P08603 19-1231, disulfides reduced with 10 mM TCEP); assay: immunoblot, SDS-PAGE under reducing conditions, antibody at 0.5 µg/ml, anti-human IgG-HRP, chemiluminescence; lane numbers as in Table 10
T4 construct: also called reduced CFH; reduced form of CFH

[19] = target: T5, Complement Factor H (CFH) protein, full-length (human, UniProt P08603 19-1231); assay: immunoblot, SDS-PAGE under non-reducing conditions, antibody at 0.5 µg/ml, anti-human IgG-HRP, chemiluminescence; lane numbers as in Table 10
T5 construct: also called full-length CFH; native CFH

[20] = target: systemic lupus erythematosus autoantigen SSA; assay: AtheNA Multi-Lyte ANA, Ab at 2.088 ug/ml
[21] = target: T2, Sm (sphingomyelin); assay: AtheNA Multi-Lyte ANA, Ab at 2.088 ug/ml
[22] = target: ribonucleoprotein (RNP); assay: AtheNA Multi-Lyte ANA, Ab at 2.088 ug/ml
[23] = target: systemic lupus erythematosus autoantigen SSA; assay: AtheNA Multi-Lyte ANA, Ab at 4.175 ug/ml
[24] = target: T2, Sm (sphingomyelin); assay: AtheNA Multi-Lyte ANA, Ab at 4.175 ug/ml
[25] = target: ribonucleoprotein (RNP); assay: AtheNA Multi-Lyte ANA, Ab at 4.175 ug/ml
[26] = target: T6, systemic lupus erythematosus autoantigen SSB (UniProt P05455 1-408, limits assumed); assay: AtheNA Multi-Lyte ANA, Ab at 50 ug/ml;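 also: monoclonal antibodies probed against a nuclear autoantigen panel (SSA, SSB, Sm, RNP, Scl-70, Jo-1, dsDNA, CentB, histones), with anti-HIV 4E10 and palivizumab as control antibodies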
T6 sequence (looked up): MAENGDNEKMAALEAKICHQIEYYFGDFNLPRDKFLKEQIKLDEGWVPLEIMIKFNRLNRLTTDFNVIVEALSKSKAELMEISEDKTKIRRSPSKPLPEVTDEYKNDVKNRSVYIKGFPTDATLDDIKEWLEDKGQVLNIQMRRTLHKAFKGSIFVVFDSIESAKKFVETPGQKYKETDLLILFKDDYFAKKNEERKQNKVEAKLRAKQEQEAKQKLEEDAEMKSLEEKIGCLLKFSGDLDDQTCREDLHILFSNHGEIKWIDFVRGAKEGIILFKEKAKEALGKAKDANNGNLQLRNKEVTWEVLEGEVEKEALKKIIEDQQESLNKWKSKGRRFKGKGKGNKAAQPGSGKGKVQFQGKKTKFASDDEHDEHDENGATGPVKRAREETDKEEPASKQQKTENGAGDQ

[27] = target: T7, sclerosis autoantigen (Scl-70) (UniProt P11387 2-765, limits assumed); assay: AtheNA Multi-Lyte ANA, Ab at 50 ug/ml;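 also: monoclonal antibodies probed against a nuclear autoantigen panel (SSA, SSB, Sm, RNP, Scl-70, Jo-1, dsDNA, CentB, histones), with anti-HIV 4E10 and palivizumab as control antibodies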
T7 sequence (looked up): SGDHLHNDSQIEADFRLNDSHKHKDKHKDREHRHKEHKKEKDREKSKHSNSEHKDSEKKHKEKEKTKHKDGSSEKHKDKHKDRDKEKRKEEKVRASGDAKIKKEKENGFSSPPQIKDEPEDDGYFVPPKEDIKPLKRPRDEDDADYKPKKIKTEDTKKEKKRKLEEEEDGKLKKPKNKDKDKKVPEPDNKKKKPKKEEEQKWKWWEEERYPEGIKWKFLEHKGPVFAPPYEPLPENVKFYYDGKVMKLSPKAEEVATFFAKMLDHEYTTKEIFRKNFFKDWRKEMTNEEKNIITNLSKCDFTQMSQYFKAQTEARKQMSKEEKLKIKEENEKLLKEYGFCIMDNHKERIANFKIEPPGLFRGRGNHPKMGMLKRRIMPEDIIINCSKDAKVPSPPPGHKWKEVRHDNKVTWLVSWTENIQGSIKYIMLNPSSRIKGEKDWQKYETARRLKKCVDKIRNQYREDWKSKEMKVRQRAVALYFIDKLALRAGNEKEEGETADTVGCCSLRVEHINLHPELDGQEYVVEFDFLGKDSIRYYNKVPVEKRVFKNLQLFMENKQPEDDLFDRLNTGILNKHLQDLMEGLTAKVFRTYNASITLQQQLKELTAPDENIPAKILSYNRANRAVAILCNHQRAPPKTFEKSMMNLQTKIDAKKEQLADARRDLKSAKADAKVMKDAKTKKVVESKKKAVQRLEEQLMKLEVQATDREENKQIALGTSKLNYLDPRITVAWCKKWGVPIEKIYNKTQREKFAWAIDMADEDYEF

[28] = target: systemic lupus erythematosus autoantigen SSA; assay: AtheNA Multi-Lyte ANA, Ab at 50 ug/ml;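 also: monoclonal antibodies probed against a nuclear autoantigen panel (SSA, SSB, Sm, RNP, Scl-70, Jo-1, dsDNA, CentB, histones), with anti-HIV 4E10 and palivizumab as control antibodies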
[29] = target: T2, Sm (sphingomyelin); assay: AtheNA Multi-Lyte ANA, Ab at 50 ug/ml;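 also: monoclonal antibodies probed against a nuclear autoantigen panel (SSA, SSB, Sm, RNP, Scl-70, Jo-1, dsDNA, CentB, histones), with anti-HIV 4E10 and palivizumab as control antibodies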
[30] = target: ribonucleoprotein (RNP); assay: AtheNA Multi-Lyte ANA, Ab at 50 ug/ml
[31] = target: T8, histidine-tRNA ligase (Jo-1) (UniProt P12081 2-509); assay: AtheNA Multi-Lyte ANA, Ab at 50 ug/ml
T8 sequence (looked up): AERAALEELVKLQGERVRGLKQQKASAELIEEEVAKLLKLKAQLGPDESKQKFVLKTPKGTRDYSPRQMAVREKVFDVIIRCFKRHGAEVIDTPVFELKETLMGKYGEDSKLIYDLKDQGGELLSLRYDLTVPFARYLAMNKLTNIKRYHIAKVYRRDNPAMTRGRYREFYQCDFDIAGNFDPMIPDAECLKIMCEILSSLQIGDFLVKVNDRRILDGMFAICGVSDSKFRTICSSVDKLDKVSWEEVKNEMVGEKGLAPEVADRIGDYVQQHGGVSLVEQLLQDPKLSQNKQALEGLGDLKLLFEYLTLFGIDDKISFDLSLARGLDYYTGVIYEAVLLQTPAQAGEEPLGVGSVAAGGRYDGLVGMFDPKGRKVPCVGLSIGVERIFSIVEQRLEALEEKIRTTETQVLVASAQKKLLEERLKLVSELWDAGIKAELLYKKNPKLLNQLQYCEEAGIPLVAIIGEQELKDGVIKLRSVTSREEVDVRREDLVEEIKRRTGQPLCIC

[32] = target: T6, systemic lupus erythematosus …; assay: AtheNA Multi-Lyte ANA, Ab at 6.25 ug/ml;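 also: monoclonal antibodies screened for reactivity against a panel of nuclear autoantigens, with an anti-HIV and an anti-RSV monoclonal antibody serving as controls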
[33] = target: T7, sclerosis autoantigen (Scl-70); assay: AtheNA Multi-Lyte ANA, Ab at 6.25 ug/ml;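 also: monoclonal antibodies screened for reactivity against a panel of nuclear autoantigens, with an anti-HIV and an anti-RSV monoclonal antibody serving as controls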
[34] = target: systemic lupus erythematosus autoantigen SSA; assay: AtheNA Multi-Lyte ANA, Ab at 6.25 ug/ml;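 also: monoclonal antibodies screened for reactivity against a panel of nuclear autoantigens, with an anti-HIV and an anti-RSV monoclonal antibody serving as controls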
[35] = target: T2, Sm (sphingomyelin); assay: AtheNA Multi-Lyte ANA, Ab at 6.25 ug/ml;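 also: monoclonal antibodies screened for reactivity against a panel of nuclear autoantigens, with an anti-HIV and an anti-RSV monoclonal antibody serving as controls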
[36] = target: ribonucleoprotein (RNP); assay: AtheNA Multi-Lyte ANA, Ab at 6.25 ug/ml
[37] = target: T8, histidine-tRNA ligase (Jo-1); assay: AtheNA Multi-Lyte ANA, Ab at 6.25 ug/ml
[38] = target: T6, systemic lupus erythematosus …; assay: AtheNA Multi-Lyte ANA, Ab at 12.5 ug/ml;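 also: monoclonal antibodies screened for binding to a panel of nuclear autoantigens (SSA, SSB, Sm, RNP, Scl-70, Jo-1, dsDNA, CentB, histones), with anti-HIV and anti-RSV antibodies as controls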
[39] = target: T7, sclerosis autoantigen (Scl-70); assay: AtheNA Multi-Lyte ANA, Ab at 12.5 ug/ml;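 also: monoclonal antibodies screened for binding to a panel of nuclear autoantigens (SSA, SSB, Sm, RNP, Scl-70, Jo-1, dsDNA, CentB, histones), with anti-HIV and anti-RSV antibodies as controls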
[40] = target: systemic lupus erythematosus autoantigen SSA; assay: AtheNA Multi-Lyte ANA, Ab at 12.5 ug/ml;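 also: monoclonal antibodies screened for binding to a panel of nuclear autoantigens (SSA, SSB, Sm, RNP, Scl-70, Jo-1, dsDNA, CentB, histones), with anti-HIV and anti-RSV antibodies as controls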
[41] = target: T2, Sm (sphingomyelin); assay: AtheNA Multi-Lyte ANA, Ab at 12.5 ug/ml;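 also: monoclonal antibodies screened for binding to a panel of nuclear autoantigens (SSA, SSB, Sm, RNP, Scl-70, Jo-1, dsDNA, CentB, histones), with anti-HIV and anti-RSV antibodies as controls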
[42] = target: ribonucleoprotein (RNP); assay: AtheNA Multi-Lyte ANA, Ab at 12.5 ug/ml
[43] = target: T8, histidine-tRNA ligase (Jo-1); assay: AtheNA Multi-Lyte ANA, Ab at 12.5 ug/ml

T5 sequence (P08603 19-1231 limits assumed): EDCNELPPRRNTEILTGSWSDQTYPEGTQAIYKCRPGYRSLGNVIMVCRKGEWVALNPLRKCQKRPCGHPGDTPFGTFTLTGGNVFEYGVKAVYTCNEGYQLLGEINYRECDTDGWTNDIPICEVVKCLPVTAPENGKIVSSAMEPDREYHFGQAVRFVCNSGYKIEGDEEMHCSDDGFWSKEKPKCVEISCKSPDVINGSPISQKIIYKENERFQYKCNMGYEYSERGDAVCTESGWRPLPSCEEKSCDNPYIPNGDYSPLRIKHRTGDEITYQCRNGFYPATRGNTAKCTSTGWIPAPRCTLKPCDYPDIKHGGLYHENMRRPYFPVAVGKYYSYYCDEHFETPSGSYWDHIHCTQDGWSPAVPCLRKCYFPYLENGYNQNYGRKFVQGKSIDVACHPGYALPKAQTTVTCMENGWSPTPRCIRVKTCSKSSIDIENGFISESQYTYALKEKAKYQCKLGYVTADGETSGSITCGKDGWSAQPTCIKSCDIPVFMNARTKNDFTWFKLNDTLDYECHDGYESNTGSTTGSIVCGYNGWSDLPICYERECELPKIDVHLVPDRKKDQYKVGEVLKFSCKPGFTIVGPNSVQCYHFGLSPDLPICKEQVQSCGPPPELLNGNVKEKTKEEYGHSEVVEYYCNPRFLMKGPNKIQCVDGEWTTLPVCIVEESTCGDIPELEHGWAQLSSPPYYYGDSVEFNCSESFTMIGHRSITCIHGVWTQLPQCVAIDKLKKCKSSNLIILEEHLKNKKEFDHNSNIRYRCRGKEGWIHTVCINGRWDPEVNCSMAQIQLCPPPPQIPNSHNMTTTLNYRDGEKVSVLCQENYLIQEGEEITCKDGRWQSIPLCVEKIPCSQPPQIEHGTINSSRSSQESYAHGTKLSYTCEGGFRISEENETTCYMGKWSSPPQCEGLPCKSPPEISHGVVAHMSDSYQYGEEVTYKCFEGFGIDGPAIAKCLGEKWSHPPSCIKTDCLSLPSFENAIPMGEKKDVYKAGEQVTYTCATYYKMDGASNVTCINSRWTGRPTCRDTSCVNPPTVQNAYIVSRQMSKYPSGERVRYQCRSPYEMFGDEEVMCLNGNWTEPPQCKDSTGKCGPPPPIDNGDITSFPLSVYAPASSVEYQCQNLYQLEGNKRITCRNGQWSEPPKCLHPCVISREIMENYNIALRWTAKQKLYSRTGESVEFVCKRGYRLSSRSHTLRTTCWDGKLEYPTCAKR
T4 sequence (P08603 19-1231 limits assumed): as above

binding result [1]: binds
AtheNA signal [2]: 165
AtheNA signal [3]: 22
AtheNA signal [4]: 56
AtheNA signal [5]: 84
AtheNA signal [6]: 10
AtheNA signal [7]: 34
AtheNA signal [8]: 120
AtheNA signal [9]: 12
AtheNA signal [10]: 44
B1: Ab7970 (antibody, IgG1, V domains shown)
VH: LVESGGGVVQPGRSLRLSCAASGLTFSFYNFHWVRQTPGKGLEWVAGISYDATRTNYAGSVTGRFTISRDNSKKMLYLQMSSLGPQDTAVYHCARDRSDGQLHKVAFDSWGQGALVTVSS
VL: MTQSPDSLTLSLGERATINCRSSRTVLYRSNNKNYLAWYQHKPGQPPKLLMSWASTRETGVPDRFSGSGSGTHFTLTITSLQPEDVAVYYCQQYYSPPWTFGQGTKVEIR
notes: IgG1 heavy chain backbone and kappa constant; also called clone 18; pH007970/pK005991_6004

binding result [1]: binds
AtheNA signal [11]: 144
AtheNA signal [12]: 92
AtheNA signal [13]: 40
EC50 [14]: 0.0122 µg/mL
AtheNA signal [15]: 146
AtheNA signal [16]: 77
AtheNA signal [17]: 38
binding result [18]: binds
binding result [19]: binds
AtheNA signal [20]: 119
AtheNA signal [21]: 45
AtheNA signal [22]: 29
AtheNA signal [23]: 140
AtheNA signal [24]: 63
AtheNA signal [25]: 36
B2: Ab7979 (antibody, IgG1, V domains shown)
VH: LVESGGGVVQPGKSLRLSCVASGFTFSTYGMHWVRQAPGKGLEWVAVMSFDGKTKYYADSVKGRFTISRDNPKNTLYLQMNSLRSEDTAVYYCAKGGAAAAVFDSWGQGILLTVSS
VL: MTQSPNSLAVSLGGRATINCKTSQSILYRSNNKNYLAWYQHKPGQPPKLLIYWASTRESRVPDRFSGSGSRTDFTLTISGLQAEDVAVYYCQQYYNPPWTFGQGTKVEIK
notes: Recombinant human antibody with IgG1 heavy chain backbone and kappa light chain constant; they begin at LVESGGG and MTQSP; also called Ab7979/239i; mAb 7979

AtheNA signal [26]: 8
AtheNA signal [27]: 3
AtheNA signal [28]: 6
AtheNA signal [29]: 2
AtheNA signal [30]: 4
AtheNA signal [31]: 5
binding result [1]: binds
AtheNA signal [32]: 7
AtheNA signal [33]: 1
AtheNA signal [34]: 2
AtheNA signal [35]: 2
AtheNA signal [36]: 2
AtheNA signal [37]: 2
EC50 [14]: 0.00782 µg/mL
binding result [18]: binds
binding result [19]: binds
AtheNA signal [38]: 8
AtheNA signal [39]: 3
AtheNA signal [40]: 4
AtheNA signal [41]: 4
AtheNA signal [42]: 3
AtheNA signal [43]: 4
B3: Ab7960/293i (antibody, IgG1, V domains shown)
VH: B2 VH with T25S, Q108P
VL: B2 VL with T22A, P43A, R60G, D63E, S79N
notes: Recombinant human antibody with IgG1 heavy chain backbone and kappa light chain constant; they begin at LVESGGG and MTQSP; also called mAb 7960; mAb7960
